From article doi:10.1101/2024.12.22.629684 (bioRxiv, 2024) come the findings set out here.

In this assay the target is T1, Yku80 (S. cerevisiae, UniProt Q04437 1-629).
T1 sequence (looked up): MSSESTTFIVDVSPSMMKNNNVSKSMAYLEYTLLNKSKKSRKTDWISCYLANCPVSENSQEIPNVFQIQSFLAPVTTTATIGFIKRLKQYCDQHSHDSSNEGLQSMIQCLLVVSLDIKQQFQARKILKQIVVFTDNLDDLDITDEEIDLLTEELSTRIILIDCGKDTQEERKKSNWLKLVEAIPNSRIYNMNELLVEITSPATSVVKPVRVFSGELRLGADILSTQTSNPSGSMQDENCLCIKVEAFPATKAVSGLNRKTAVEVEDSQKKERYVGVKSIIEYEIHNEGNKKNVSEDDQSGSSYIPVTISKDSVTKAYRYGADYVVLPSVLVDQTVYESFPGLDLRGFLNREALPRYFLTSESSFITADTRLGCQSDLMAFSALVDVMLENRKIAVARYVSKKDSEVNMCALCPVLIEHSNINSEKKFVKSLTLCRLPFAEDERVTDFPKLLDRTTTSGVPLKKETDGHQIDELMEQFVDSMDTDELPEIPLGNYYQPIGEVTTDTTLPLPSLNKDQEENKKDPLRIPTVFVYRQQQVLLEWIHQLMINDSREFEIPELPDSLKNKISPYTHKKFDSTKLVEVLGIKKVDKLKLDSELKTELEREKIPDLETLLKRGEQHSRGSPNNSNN
Briefly: cryo-EM structure.

B1: Yku70 (natural protein, S. cerevisiae, UniProt P32807 1-602, looked up)
chain: MRSVTNAFGNSGELNDQVDETGYRKFDIHEGILFCIELSETMFKESSDLEYKSPLLEILESLDELMSQLVITRPGTAIGCYFYYCNREDAKEGIYELFPLRDINATFMKKLNDLLEDLSSGRISLYDYFMFQQTGSEKQVRLSVLFTFMLDTFLEEIPGQKQLSNKRVFLFTDIDKPQEAQDIDERARLRRLTIDLFDNKVNFATFFIGYADKPFDNEFYSDILQLGSHTNENTGLDSEFDGPSTKPIDAKYIKSRILRKKEVKRIMFQCPLILDEKTNFIVGVKGYTMYTHEKAGVRYKLVYEHEDIRQEAYSKRKFLNPITGEDVTGKTVKVYPYGDLDINLSDSQDQIVMEAYTQKDAFLKIIGFRSSSKSIHYFNNIDKSSFIVPDEAKYEGSIRTLASLLKILRKKDKIAILWGKLKSNSHPSLYTLSPSSVKDYNEGFYLYRVPFLDEIRKFPSLLSYDDGSEHKLDYDNMKKVTQSIMGYFNLRDGYNPSDFKNPLLQKHYKVLHDYLLQIETTFDENETPNTKKDRMMREDDSLRKLYYIRNKILESEKSEDPIIQRLNKYVKIWNMFYKKFNDDNISIKEEKKPFDKKPKFNI
As for B1, the binding result is “binds”.
